Earlier results on two substances are cited in publication PMC11658791.

One may read the pKd as −log10 of the Kd, conventionally taken in molar units.

The target of series [1] is TonB (Escherichia coli) (UniProt P02929).
Series [2] concerns the target Colicin M (Cma) (Escherichia coli) (UniProt P05820).
Series [3] concerns the target TonB (Escherichia coli) (UniProt P02929). The series is described as follows: ITC.
Series [4] concerns the target FpvAI (Pseudomonas aeruginosa) (UniProt P48632).

pKd: −log10 of the molar value. Where two headings read alike, the source gives them in different places.

Chain of UniProt P02929 (P02929 whole entry): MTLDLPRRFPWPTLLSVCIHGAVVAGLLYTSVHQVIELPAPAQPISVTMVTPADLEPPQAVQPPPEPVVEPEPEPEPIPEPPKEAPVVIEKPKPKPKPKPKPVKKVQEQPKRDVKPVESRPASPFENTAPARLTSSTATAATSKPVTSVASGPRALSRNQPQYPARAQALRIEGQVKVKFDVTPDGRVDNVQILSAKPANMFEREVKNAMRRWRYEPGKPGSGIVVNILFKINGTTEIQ
Chain of UniProt P05820 (P05820 whole entry): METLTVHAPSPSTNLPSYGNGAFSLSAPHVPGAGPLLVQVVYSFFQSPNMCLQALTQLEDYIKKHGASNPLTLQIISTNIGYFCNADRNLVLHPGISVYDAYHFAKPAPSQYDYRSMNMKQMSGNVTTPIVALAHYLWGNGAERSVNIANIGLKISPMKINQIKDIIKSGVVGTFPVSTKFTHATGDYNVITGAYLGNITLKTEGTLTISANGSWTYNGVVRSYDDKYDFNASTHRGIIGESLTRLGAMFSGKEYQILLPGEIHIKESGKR
Chain of UniProt P48632 (P48632 44-815): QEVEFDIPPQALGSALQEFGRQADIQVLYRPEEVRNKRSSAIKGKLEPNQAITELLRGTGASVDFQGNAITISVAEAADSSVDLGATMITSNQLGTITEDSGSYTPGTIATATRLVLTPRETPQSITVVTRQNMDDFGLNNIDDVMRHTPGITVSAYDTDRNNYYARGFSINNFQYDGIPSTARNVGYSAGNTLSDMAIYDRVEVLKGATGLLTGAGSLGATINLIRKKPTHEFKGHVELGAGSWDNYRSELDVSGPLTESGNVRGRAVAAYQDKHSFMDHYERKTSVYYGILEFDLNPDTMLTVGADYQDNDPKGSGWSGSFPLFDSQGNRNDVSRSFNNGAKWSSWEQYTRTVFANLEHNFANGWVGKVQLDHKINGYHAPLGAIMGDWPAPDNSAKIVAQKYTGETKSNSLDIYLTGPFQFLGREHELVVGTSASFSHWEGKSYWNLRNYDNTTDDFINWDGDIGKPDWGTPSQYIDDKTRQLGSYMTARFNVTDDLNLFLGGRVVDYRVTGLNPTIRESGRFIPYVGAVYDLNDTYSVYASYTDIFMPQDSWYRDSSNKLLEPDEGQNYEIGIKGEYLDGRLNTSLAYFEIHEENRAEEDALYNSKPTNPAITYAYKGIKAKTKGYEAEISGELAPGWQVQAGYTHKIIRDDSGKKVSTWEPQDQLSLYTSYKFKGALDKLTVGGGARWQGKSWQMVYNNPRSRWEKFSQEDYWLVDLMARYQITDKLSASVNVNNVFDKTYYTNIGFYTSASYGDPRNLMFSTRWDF

As to FhuA (from UniProt P06971), the pKd with TonB (Escherichia coli) [1] is 7.70; in series [2], 8.46; with TonB (Escherichia coli) [3], 6.70.
In the case of “Pyocin S2 (pyoS2NTD) N-terminal domain (from UniProt Q06584)”, the pKd in series [4] is 9.62.
